Test results reported in patent US20080318246A1, “Deeply quenched enzyme sensors” (The Albert Einstein College of Medicine of Yeshiva …, priority 2007, published 2008).
Blank lines part the entries; values can stand above or below the substance they belong to.

Key:
14-3-3τ = 14-3-3τ (UniProt P27348); assay: cell-based or functional assay
[1] = target: cAMP-dependent protein kinase (PKA), murine catalytic subunit (murine) (UniProt P05132); assay: cell-based or functional assay

14-3-3τ, sequence (P27348 whole entry): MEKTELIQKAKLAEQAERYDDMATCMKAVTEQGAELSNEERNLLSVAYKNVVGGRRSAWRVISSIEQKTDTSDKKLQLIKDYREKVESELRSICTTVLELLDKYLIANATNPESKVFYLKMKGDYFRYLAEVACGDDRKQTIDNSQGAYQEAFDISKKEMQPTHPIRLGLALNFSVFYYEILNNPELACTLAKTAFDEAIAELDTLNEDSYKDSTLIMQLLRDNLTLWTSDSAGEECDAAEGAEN

% Fluorescence Enhancement on phosphorylation, no quenching dye (14-3-3τ): 40%
PKA-induced fluorescence change; Alizarin Red 5x (14-3-3τ): 1.36 fold
PKA-induced fluorescence change; Alizarin Red 10x (14-3-3τ): 1.33 fold
PKA-induced fluorescence change; Alizarin Red 25x (14-3-3τ): 1.23 fold
PKA-induced fluorescence change; Alizarin Red 50x (14-3-3τ): 1.07 fold
PKA-induced fluorescence change; Aniline Blue WS 5x (14-3-3τ): 2.34 fold
PKA-induced fluorescence change; Aniline Blue WS 10x (14-3-3τ): 4.82 fold
PKA-induced fluorescence change; Aniline Blue WS 25x (14-3-3τ): 5.58 fold
PKA-induced fluorescence change; Aniline Blue WS 50x (14-3-3τ): 1.4 fold
PKA-induced fluorescence change; Chlorazol Black E 5x (14-3-3τ): 4.01 fold
PKA-induced fluorescence change; Chlorazol Black E 10x (14-3-3τ): 0.93 fold
PKA-induced fluorescence change; Chlorazol Black E 25x (14-3-3τ): 0.55 fold
PKA-induced fluorescence change; Chlorazol Black E 50x (14-3-3τ): 0.87 fold
PKA-induced fluorescence change; Eriochrome Black T 5x (14-3-3τ): 1.32 fold
PKA-induced fluorescence change; Eriochrome Black T 10x (14-3-3τ): 1.12 fold
PKA-induced fluorescence change; Eriochrome Black T 25x (14-3-3τ): 0.59 fold
PKA-induced fluorescence change; Eriochrome Black T 50x (14-3-3τ): 0.59 fold
PKA-induced fluorescence change; Evans Blue 5x (14-3-3τ): 0.98 fold
PKA-induced fluorescence change; Evans Blue 10x (14-3-3τ): 0.91 fold
PKA-induced fluorescence change; Evans Blue 25x (14-3-3τ): 0.89 fold
PKA-induced fluorescence change; Evans Blue 50x (14-3-3τ): 0.91 fold
PKA-induced fluorescence change; Ponceau S 5x (14-3-3τ): 2.26 fold
PKA-induced fluorescence change; Ponceau S 10x (14-3-3τ): 2.63 fold
PKA-induced fluorescence change; Ponceau S 25x (14-3-3τ): 2.88 fold
PKA-induced fluorescence change; Ponceau S 50x (14-3-3τ): 2.69 fold
PKA-induced fluorescence change; Reactive Blue 2 5x (14-3-3τ): 2.16 fold
PKA-induced fluorescence change; Reactive Blue 2 10x (14-3-3τ): 2.66 fold
PKA-induced fluorescence change; Reactive Blue 2 25x (14-3-3τ): 3.55 fold
PKA-induced fluorescence change; Reactive Blue 2 50x (14-3-3τ): 4.27 fold
PKA-induced fluorescence change; Rose Bengal 5x (14-3-3τ): 6.52 fold
PKA-induced fluorescence change; Rose Bengal 10x (14-3-3τ): 2.88 fold
PKA-induced fluorescence change; Rose Bengal 25x (14-3-3τ): 1.1 fold
PKA-induced fluorescence change; Rose Bengal 50x (14-3-3τ): 0.91 fold
PKA-induced fluorescence change; Tartrazine 5x (14-3-3τ): 1.28 fold
PKA-induced fluorescence change; Tartrazine 10x (14-3-3τ): 1.42 fold
PKA-induced fluorescence change; Tartrazine 25x (14-3-3τ): 1.46 fold
PKA-induced fluorescence change; Tartrazine 50x (14-3-3τ): 1.47 fold
PKA-induced fluorescence change; Trypan Blue 5x (14-3-3τ): 3.03 fold
PKA-induced fluorescence change; Trypan Blue 10x (14-3-3τ): 2.18 fold
PKA-induced fluorescence change; Trypan Blue 25x (14-3-3τ): 1.72 fold
PKA-induced fluorescence change; Trypan Blue 50x (14-3-3τ): 2.76 fold
Substance: P4, Ac-GRDap(Pyr)GRRFSYP-amide, serine-phosphorylated by PKA in the assay (peptide)

IC50 of PKA activity (Deep Quench assay, P2/Ponceau S, 1 mM ATP) [1]: 1.1 µM
IC50 of PKA activity (standard radioactive ATP method) [1]: 1.6 µM
Substance: PKI (14-22) peptide

% Fluorescence Enhancement on phosphorylation, no quenching dye (14-3-3τ): 64%
PKA-induced fluorescence change; Alizarin Red 5x (14-3-3τ): 1.7 fold
PKA-induced fluorescence change; Alizarin Red 10x (14-3-3τ): 1.59 fold
PKA-induced fluorescence change; Alizarin Red 25x (14-3-3τ): 1.49 fold
PKA-induced fluorescence change; Alizarin Red 50x (14-3-3τ): 1.5 fold
PKA-induced fluorescence change; Aniline Blue WS 5x (14-3-3τ): 3.02 fold
PKA-induced fluorescence change; Aniline Blue WS 10x (14-3-3τ): 5.36 fold
PKA-induced fluorescence change; Aniline Blue WS 25x (14-3-3τ): 6.04 fold
PKA-induced fluorescence change; Aniline Blue WS 50x (14-3-3τ): 1.23 fold
PKA-induced fluorescence change; Chlorazol Black E 5x (14-3-3τ): 5.62 fold
PKA-induced fluorescence change; Chlorazol Black E 10x (14-3-3τ): 1.52 fold
PKA-induced fluorescence change; Chlorazol Black E 25x (14-3-3τ): 0.21 fold
PKA-induced fluorescence change; Chlorazol Black E 50x (14-3-3τ): 0.25 fold
PKA-induced fluorescence change; Eriochrome Black T 5x (14-3-3τ): 1.61 fold
PKA-induced fluorescence change; Eriochrome Black T 10x (14-3-3τ): 1.73 fold
PKA-induced fluorescence change; Eriochrome Black T 25x (14-3-3τ): 0.84 fold
PKA-induced fluorescence change; Eriochrome Black T 50x (14-3-3τ): 1.12 fold
PKA-induced fluorescence change; Evans Blue 5x (14-3-3τ): 1.33 fold
PKA-induced fluorescence change; Evans Blue 10x (14-3-3τ): 0.92 fold
PKA-induced fluorescence change; Evans Blue 25x (14-3-3τ): 0.84 fold
PKA-induced fluorescence change; Evans Blue 50x (14-3-3τ): 0.78 fold
PKA-induced fluorescence change; Ponceau S 5x (14-3-3τ): 2.85 fold
PKA-induced fluorescence change; Ponceau S 10x (14-3-3τ): 3.3 fold
PKA-induced fluorescence change; Ponceau S 25x (14-3-3τ): 3.23 fold
PKA-induced fluorescence change; Ponceau S 50x (14-3-3τ): 4.36 fold
PKA-induced fluorescence change; Reactive Blue 2 5x (14-3-3τ): 2.28 fold
PKA-induced fluorescence change; Reactive Blue 2 10x (14-3-3τ): 3.99 fold
PKA-induced fluorescence change; Reactive Blue 2 25x (14-3-3τ): 6.44 fold
PKA-induced fluorescence change; Reactive Blue 2 50x (14-3-3τ): 5.79 fold
PKA-induced fluorescence change; Rose Bengal 5x (14-3-3τ): 8.36 fold
PKA-induced fluorescence change; Rose Bengal 10x (14-3-3τ): 3.45 fold
PKA-induced fluorescence change; Rose Bengal 25x (14-3-3τ): 1.02 fold
PKA-induced fluorescence change; Rose Bengal 50x (14-3-3τ): 0.95 fold
PKA-induced fluorescence change; Tartrazine 5x (14-3-3τ): 1.43 fold
PKA-induced fluorescence change; Tartrazine 10x (14-3-3τ): 1.52 fold
PKA-induced fluorescence change; Tartrazine 25x (14-3-3τ): 1.79 fold
PKA-induced fluorescence change; Tartrazine 50x (14-3-3τ): 2.05 fold
PKA-induced fluorescence change; Trypan Blue 5x (14-3-3τ): 6.21 fold
PKA-induced fluorescence change; Trypan Blue 10x (14-3-3τ): 2.72 fold
PKA-induced fluorescence change; Trypan Blue 25x (14-3-3τ): 3.61 fold
PKA-induced fluorescence change; Trypan Blue 50x (14-3-3τ): 3.48 fold
Phosphorylation-induced fluorescence fold-change; P5/Rose Bengal (1:5), plate reader - bottom read (14-3-3τ): 8 fold
Phosphorylation-induced fluorescence fold-change; P5/Rose Bengal (1:5), plate reader - top read (14-3-3τ): 30 fold
Phosphorylation-induced fluorescence fold-change; P5/Rose Bengal (1:5), spectrofluorimeter (14-3-3τ): 64 fold
Substance: phosphorylated P5 peptide AcDap(Pyr)RTGRRFS(PO3 2-)YP-amide
